# ± gives the uncertainty stated by the source.
# Assay: self-splicing fitness, log relative to wild type (ln ratio); higher = more splicing; Tetrahymena group I intron in knt gene, E. coli kanamycin selection, DiMSum; sequences stand for … in CUCUCU…GGAGGGAAAAGUUAUCAGGCAUGCACCUGGUAGCUAGUCUUUAAACCAAUAGAUUGCAUCGGUUUAAAAGGCAAGACCGUCAAAUUGCGGGAAAGGGGUCAACAGCCGUUCAGUACCAAGUCUCAGGGGAAACUUUGAGAUGGCCUUGCAAAGGGUAUGGUAAUAAGCUGACGGACAUGGUCCUAACCACGCAGCCAAGUCCUAAGUCAACAGAUCUUCUGUUGAUAUGGAUGCAGUUCACAGACUAAAUGUCGGUCGGGGAAGAUGUAUUCUUCUCAUAAGAUAUAGUCGGACCUCUCCUUAAUGGGAGCUAGCGGAUGAAGUGAUGCAACACUGGAGCCGCUGGGAACUAAUUUGUAUGCGAAAGUAUAUUGAUUAGUUUUGGAGUACUCGUGGUCG
# How it was run: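 Pooled colonies went to amplicon sequencing on an Illumina HiSeq 2500 after six replicate transformations. The plates were LB agar with 100 μg/mL carbenicillin, 50 μM IPTG and 0.2% rhamnose, with or without 25 μg/mL kanamycin, incubated overnight at 37°C or 30°C. The E. coli BL21(DE3) library had all eight P1ex-region intron nucleotides randomised, the intron placed in the knt kanamycin-resistance gene on pET-22b(+). DiMSum fitness is the error-weighted combination of replicate fold changes, kanamycin against none, normalised to wild type.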
Sequence,self-splicing fitness (ln) (30 °C),self-splicing fitness (ln) (37 °C)
GCAAAGCAAUAUUACGCAAC,-3.02 ± 0.15,-1.23 ± 0.12
GCAAAGCAAUAUUACGCCAA,-2.08 ± 0.48,-2.95 ± 0.31
GCAAAGCAAUAUUACGCGGG,-3.11 ± 0.21,-2.41 ± 0.21
GCAAAGCAAUAUUACGCUUC,-4.15 ± 0.33,-2.39 ± 0.33
GCAAAGCAAUAUUACGGCUA,-0.821 ± 0.07,-0.279 ± 0.073
GCAAAGCAAUAUUACGGGAC,-1.82 ± 0.11,-1.66 ± 0.16
GCAAAGCAAUAUUACGGGCG,-0.534 ± 0.079,-0.696 ± 0.11
GCAAAGCAAUAUUACGGUUU,-1.26 ± 0.063,-0.4 ± 0.082
GCAAAGCAAUAUUACGUAAU,-1.23 ± 0.061,-0.867 ± 0.084
GCAAAGCAAUAUUACGUCCA,-1.64 ± 0.12,-0.284 ± 0.11
GCAAAGCAAUAUUACGUGCC,-4.02 ± 0.25,-1.63 ± 0.2
GCAAAGCAAUAUUACGUGGA,-2.07 ± 0.14,-2.36 ± 0.16
GCAAAGCAAUAUUACGUGGC,-3.38 ± 0.31,-2.57 ± 0.24
GCAAAGCAAUAUUACGUGUG,-1.99 ± 0.046,-0.419 ± 0.052
GCAAAGCAAUAUUACGUUUA,-2.29 ± 0.12,-1.75 ± 0.13
GCACAGCAAUAUUACGAAAC,-0.701 ± 0.088,-0.265 ± 0.12
GCACAGCAAUAUUACGACGC,-0.317 ± 0.079,-0.196 ± 0.12
GCACAGCAAUAUUACGAGGC,-2.95 ± 0.12,-3.27 ± 0.2
GCACAGCAAUAUUACGAGUG,-4.09 ± 0.26,-2.64 ± 0.17
GCACAGCAAUAUUACGAUUA,-1.38 ± 0.087,-0.549 ± 0.086
GCACAGCAAUAUUACGCCAC,,-1.97 ± 0.2

Sequence,self-splicing fitness (ln) (30 °C),self-splicing fitness (ln) (37 °C)
GCACAGCAAUAUUACGCGGA,-1.51 ± 0.14,-0.87 ± 0.12
GCACAGCAAUAUUACGCUCG,-0.537 ± 0.066,0.118 ± 0.095
GCACAGCAAUAUUACGCUUG,-2.89 ± 0.12,-1.39 ± 0.11
GCACAGCAAUAUUACGGCGU,-0.386 ± 0.061,0.414 ± 0.079
GCACAGCAAUAUUACGGGAA,-1.47 ± 0.15,-1.42 ± 0.13
GCACAGCAAUAUUACGGGUG,-4.37 ± 0.23,-2.62 ± 0.16
GCACAGCAAUAUUACGGUAA,-1.06 ± 0.075,-0.547 ± 0.079
GCACAGCAAUAUUACGGUCG,-0.697 ± 0.043,-0.246 ± 0.057
GCACAGCAAUAUUACGUCCU,-0.289 ± 0.072,0.244 ± 0.094
GCACAGCAAUAUUACGUGCA,-3.1 ± 0.12,-2.04 ± 0.093
GCACAGCAAUAUUACGUGUC,-2.98 ± 0.12,-2.05 ± 0.17
GCACAGCAAUAUUACGUUAC,-1.14 ± 0.074,-0.837 ± 0.087
GCACAGCAAUAUUACGUUAU,-1.14 ± 0.044,-0.44 ± 0.054
GCACAGCAAUAUUACGUUCA,-0.911 ± 0.054,-0.855 ± 0.062
GCACAGCAAUAUUACGUUCC,-1.85 ± 0.078,-0.808 ± 0.11
GCACAGCAAUAUUACGUUGG,-1.6 ± 0.058,-0.74 ± 0.071
GCAGAGCAAUAUUACGAAAG,-2.9 ± 0.16,-3.24 ± 0.26
GCAGAGCAAUAUUACGAAUC,-1.94 ± 0.33,-1.15 ± 0.33
GCAGAGCAAUAUUACGAUCC,-2.13 ± 0.3,-0.288 ± 0.46
GCAGAGCAAUAUUACGAUUU,-2.51 ± 0.14,-2.16 ± 0.19
GCAGAGCAAUAUUACGCGUG,-2.7 ± 0.24,-3.6 ± 0.37
